Experiment [1] has as its target human PD-L1 (full length, on cells) (human), Q9NZQ7. Briefly: flow cytometry on MDA-MB-231 cells, PE anti-human IgG secondary, MFI (PE). Background: A flow cytometer gives signals particle by particle.
Experiment [2] addresses cynomolgus monkey PD-L1 (full length, on CHO cells) (cynomolgus monkey (Macaca fascicularis)), G7PSE7. Kind of experiment: flow cytometry on CHO cells transfected with cynomolgus PD-L1, PE anti-human IgG secondary, MFI (PE).
For experiment [3], the target named is human PD-L1 (full length, on cells) (human), Q9NZQ7. Briefly: flow cytometry on SK-MES-1 cells, PE anti-human IgG secondary, MFI (PE).
Experiment [4] has the same target.
The target is the same in experiment [5]. Briefly: flow cytometry on PC3 cells, PE anti-human IgG secondary, MFI (PE).

Where two headings read alike, the source gives them in different places.

Chain of human PD-L1 (full length, on cells) (human), Q9NZQ7 (Q9NZQ7 19-290 limits assumed): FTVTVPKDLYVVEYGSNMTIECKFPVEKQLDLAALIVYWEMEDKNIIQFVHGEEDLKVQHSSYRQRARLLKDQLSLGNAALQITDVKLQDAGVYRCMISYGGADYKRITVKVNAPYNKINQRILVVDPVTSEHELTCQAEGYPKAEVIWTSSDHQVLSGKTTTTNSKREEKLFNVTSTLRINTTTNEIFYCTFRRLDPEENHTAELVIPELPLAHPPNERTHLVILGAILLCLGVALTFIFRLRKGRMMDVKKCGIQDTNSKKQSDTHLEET
Chain of cynomolgus monkey PD-L1 (full length, on CHO cells) (cynomolgus monkey (Macaca fascicularis)), G7PSE7 (G7PSE7 entry or part of it): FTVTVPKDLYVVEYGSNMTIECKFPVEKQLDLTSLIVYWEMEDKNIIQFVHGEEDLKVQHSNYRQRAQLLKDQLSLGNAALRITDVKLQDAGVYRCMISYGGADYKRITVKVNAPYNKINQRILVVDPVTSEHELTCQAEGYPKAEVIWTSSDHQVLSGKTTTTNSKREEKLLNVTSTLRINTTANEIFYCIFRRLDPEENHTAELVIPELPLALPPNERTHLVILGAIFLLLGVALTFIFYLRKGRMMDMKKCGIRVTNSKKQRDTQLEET

B1: bsIgG1-b12-FEAL×547-FEAR (bispecific antibody, not shown: another chain or arm of the molecule)
heavy: EVQLLEPGGGLVQPGGSLRLSCEASGSTFSTYAMSWVRQAPGKGLEWVSGFSGSGGFTFYADSVRGRFTISRDSSKNTLFLQMSSLRAEDTAVYYCAIPARGYNYGSFQHWGQGTLVTVSSASTKGPSVFPLAPSSKSTSGGTAALGCLVKDYFPEPVTVSWNSGALTSGVHTFPAVLQSSGLYSLSSVVTVPSSSLGTQTYICNVNHKPSNTKVDKRVEPKSCDKTHTCPPCPAPEFEGGPSVFLFPPKPKDTLMISRTPEVTCVVVAVSHEDPEVKFNWYVDGVEVHNAKTKPREEQYNSTYRVVSVLTVLHQDWLNGKEYKCKVSNKALPAPIEKTISKAKGQPREPQVYTLPPSREEMTKNQVSLTCLVKGFYPSDIAVEWESNGQPENNYKTTPPVLDSDGSFFLYSRLTVDKSRWQQGNVFSCSVMHEALHNHYTQKSLSLSPGK
light: SYVLTQPPSVSVAPGQTARITCGGNNIGSKSVHWYQQKPGQAPVLVVYDDNDRPSGLPERFSGSNSGNTATLTISRVEAGDEADYYCQVWDSSSDHVVFGGGTKLTVLGQPKAAPSVTLFPPSSEELQANKATLVCLISDFYPGAVTVAWKADSSPVKAGVETTTPSKQSNNKYAASSYLSLTPEQWKSHRSYSCQVTHEGSTVEKTVAPTECS
modifications: not checked
B1: the EC50 (read off the curve) (commonly the concentration that produces a half-maximal response) in experiment [1] is 0.06 mg/L; in experiment [2], 0.2 mg/L; in experiment [3] it was 0.2 mg/L; in experiment [4], 0.1 mg/L; in experiment [5] it was 0.05 mg/L.

The record behind these values is US20200239579A1.
